From US20220089678A1 (CARTESIAN THERAPEUTICS, published 2022) come the findings set out here.

Substitutions are numbered along the chain they refer to.

Experiment [1] concerns the target T1, human BCMA on cells (human, UniProt Q02223 1-184).
T1 sequence: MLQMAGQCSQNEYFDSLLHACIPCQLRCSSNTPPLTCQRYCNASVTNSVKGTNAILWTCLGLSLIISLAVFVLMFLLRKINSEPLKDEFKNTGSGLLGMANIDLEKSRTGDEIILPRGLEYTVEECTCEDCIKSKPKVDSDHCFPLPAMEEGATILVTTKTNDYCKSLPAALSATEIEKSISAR
Nature of the experiment: cell-based or functional assay.

For experiment [2], the target named is T1, human BCMA on cells. Nature of the experiment: cell-based or functional assay. The source holds these as a separate data set.
Experiment [3] deals with T2, phycoerythrin (PE)-conjugated BCMA (Recombinant Human TNFRSF17 protein, Fc/His-tagged, R-PE labeled); Creative … (human, UniProt Q02223 1-54, R-PE labeled).
T2 construct: Bought reagent; also called BCMA-PE; not shown: Fc/His tag of the bought reagent
T2 sequence: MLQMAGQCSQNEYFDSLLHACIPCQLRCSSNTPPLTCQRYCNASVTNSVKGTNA
As to the kind of experiment: flow cytometry; CAR T cells stained with BCMA-PE, 3 days after electroporation. Here is the method: (§1) CAR T cells obtained from the above-described process were tested for viability, CAR protein expression, BCMA binding, and cytotoxicity, i.e., the ability to kill BCMA+ myeloma (tumor) cells. Viability, CAR expression, and BCMA binding were determined by flow cytometry on a GUAVA® […]® 12HT Flow cytometer (EMD Millipore). To test viability, a sample of the CAR T cells was mixed with propidium iodide and run on the flow cytometer with electronic gating on fluorescence in the near infrared channel. To test CAR protein expression and BCMA binding, a sample of the CAR T cells was incubated with 0.4 ug/mL of phycoerythrin (PE)-conjugated BCMA (Recombinant Human TNFRSF17 protein, Fc/His-tagged, R-PE labeled; Creative Biomart, Shirley, N.Y.). CAR expression was assessed on the flow cytometer with electronic gating on fluorescence in the yellow channel to detect presence or absence of emission from BCMA-PE on CAR-positive and CAR-negative cells. BCMA binding was determined by measuring the intensity of fluorescence in the yellow channel to determine the relative quantity of BCMA-PE bound to labelled CAR-positive cells. For the viability, expression, and BCMA binding assays, CD8+ T cells electroporated without mRNA (CAR-negative T Cells) were tested as a parallel control.
For each of the mRNA constructs, CAR T cells were prepared by transfection into human CD8+ cells, as described in Example 1. The CAR T cells made from each mRNA construct were then tested 3 days after electroporation for BCMA binding and tumor killing, as described in Example 1.
A general note: Flow cytometry measures light scatter and fluorescence of single cells or particles in a stream.

Experiment [4] has as its target T2, phycoerythrin (PE)-conjugated BCMA …. The description is as above. Here is the method: as §1
Numerous CAR-encoding mRNA constructs were prepared using the mRNA construct of SEQ ID: 29 as a starting point (which encodes a CAR of sequence SEQ ID: 19 and comprises the scFv of sequence SEQ ID: 48). These constructs encoded the same or substantially the same amino acid residues in the scFv complementary-determining regions (CDRs) but varied with respect to the amino acid residues in the scFv framework regions. In making these variations, the experimenter's intent was to humanize the scFv framework regions without reducing BCMA-binding and tumor-killing properties of CAR T cells that express the CAR. For each of the mRNA constructs, CAR T cells were prepared by transfection into human CD8+ cells, substantially as described in Example 1. The CAR T cells made from each mRNA construct were then tested 3 days after electroporation for BCMA binding and/or tumor killing, as substantially described in Example 1.
This is another data set of the same source.

B1: CAR comprising scFv-Y32 (SEQ ID NO: 57) (other)
chain: DIVLTQSPSSLSASVGDRATISCRASESVTILGSHLIHWYQQKPGQAPKLLIQLASNVQTGVPARFSGSGSGTDFTLTISSVEPEDVAVYYCLQSRTIPRTFGQGTKVEIKGSTSGSGKPGSGEGSTKGQIQLVQSGPELKKPGGSVKISCAASGYTFTDYSINWVRQAPGKGLEWVGWINTETREPAYAYDFRGRFTFSADTSKSTAYLQMNSLRAEDTAVYYCALDYSYAMDYWGQGTLVTVSS
notes: CAR on mRNA-electroporated human CD8+ T cells; Only the scFv is identified; not shown: rest of the CAR (hinge, transmembrane, cytoplasmic domains) not specified for this construct
For the molecule B1, the “Killing (% killed), Effector:target ratio of 1:2” value in experiment [1] was 85%. For the same molecule, the “Killing (% killed), Effector:target ratio of 1:10” value in experiment [2] worked out at 85%. For the same molecule, the “BCMA Binding (arbitrary units)” value in experiment [3] was 343 arbitrary units. Besides, in experiment [4], the “BCMA Binding” value is 460 relative (SEQ ID: 48 = 100) and the “BCMA Binding (relative to SEQ ID: 54)” value is 124 relative to SEQ ID: 54 = 100.

B2: CAR comprising scFv-21′ (SEQ ID NO: 70) (other)
chain: B1 chain with Q53N, Q59N
notes: as for B1
On to B2, for which, in experiment [1], the “Killing (% killed), Effector:target ratio of 1:2” value came to 83%. Moreover, the “BCMA Binding (arbitrary units)” value in experiment [3] was 404 arbitrary units.

B3: CAR comprising scFv-12′ (SEQ ID NO: 68) (other)
chain: B1 chain with R96K, T97N, I98F, D160S, S162D, S230L, A232S, M233L, Y235F
notes: as for B1
With B3, the “Killing (% killed), Effector:target ratio of 1:2” value in experiment [1] stood at 7%. Also, the “BCMA Binding (arbitrary units)” value in experiment [3] was determined as 446 arbitrary units.

B4: CAR comprising scFv-13′ (SEQ ID NO: 69) (other)
chain: DIVLTQSPSSLSASVGDRATISCRASESVSFLGINLIHWYQQKPGQAPKLLIYLASNLETGVPARFSGSGSGTDFTLTISSVEPEDVAVYYCLQSRTLPRTFGQGTKVEIKGSTSGSGKPGSGEGSTKGQIQLVQSGPELKKPGGSVKISCAASGYTFTSYSINWVRQAPGKGLEWVGWINTETREPAYAQGFTGRFTFSADTSKSTAYLQMNSLRAEDTAVYYCALDYLYSLDFWGQGTLVTVSS
notes: as for B1
For the molecule B4, the “Killing (% killed), Effector:target ratio of 1:2” value in experiment [1] was 77%. Besides, the “BCMA Binding (arbitrary units)” value in experiment [3] worked out at 230 arbitrary units.

B5: CAR comprising scFv-Y37 (SEQ ID NO: 60) (other)
chain: DIVLTQSPASLAVSPGQRATITCRASESVTILGSHLIHWYQQKPGQPPKLLIQLASNVQTGVPARFSGSGSGTDFTLTISSVEPEDTANYYCLQSRTIPRTFGQGTKVEIKGSTSGSGKPGSGEGSTKGQIQLVQSGPELKKPGGSVKISCKASGYTFTDYSINWVRQAPGKGLEWVGWINTETREPAYAYDFTGRFTFSADTSKSMAYLQINSLRAEDTAVYYCALDYSYAMDYWGQGTLVTVSS
notes: as for B1
Regarding B5, in experiment [1], the “Killing (% killed), Effector:target ratio of 1:2” value is 83%. In addition, the “Killing (% killed), Effector:target ratio of 1:10” value in experiment [2] is 83%. Besides, the “BCMA Binding (arbitrary units)” value in experiment [3] stood at 381 arbitrary units. The “BCMA Binding” value in experiment [4] is 382 relative (SEQ ID: 48 = 100).
